Laboratory results: the supplement of paper PMC6757056
± gives the standard deviation of the averaged measurements.

B1: library; a variant is named by its letters at N, in order (parent)
chain: GCUGUCACCGAGAAACUGUGAAGUAUAUCUUAAACCUGGGCACUUAAAAGAUAUAUGGAGUUAGUAGUGCAACCUGCUCGGUCUGAUGAGUCCNNNNNNGGACGAAACAGC

What was measured:
cyclic di-GMP [1] = variants of: B1; assay: FACS-Seq fitted mean relative fluorescence mCherry/BFP without ligand (log10 relative fluorescence); HEK293T; ligand: cyclic di-GMP (c-di-GMP-II aptamer); higher = higher reporter protein expression; conditions: ligand present: no
Summary of the method: (§1)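 The ribozyme switch sat in an mCherry reporter, delivered by lentivirus into HEK293T libraries along with an EF1α-BFP marker. Enriched cells were incubated 48 h with or without ligand, sorted into 6 bins by mCherry/BFP, and bin genomic DNA was PCR-amplified, barcoded and MiSeq-sequenced. Fluorescence equals the fitted normal mean of the bin counts after normalization. Those log10(mCherry/BFP) means were scaled to five spiked-in control ribozymes.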

cyclic di-GMP [2] = variants of: B1; assay: normalized RNA/DNA level without ligand (relative to sTRSVctl = 100) (log10 (% of sTRSVctl)); HEK293T; ligand: cyclic di-GMP (c-di-GMP-II aptamer); higher = less ribozyme self-cleavage, higher mRNA level; conditions: reporter: mCherry (pCS4076), ligand present: no
Summary of the method: (§2)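 Library plasmids encoding reporter-linked ribozyme switches (mCherry, or eGFP for some folinic acid experiments) were transfected into HEK293T at 4 µg per 6-well well. Ligand, when used, was added 1 h before transfection. Total RNA was extracted with EDTA 72 h later, then reverse-transcribed, amplified, barcoded and sequenced. RNA level was RNA reads over DNA reads, divided by a spiked-in non-cleaving control (or the top 25 sequences), ×100, log10; only sequences with ≥100 DNA reads were kept.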

cyclic di-GMP [3] = variants of: B1; assay: FACS-Seq fitted mean relative fluorescence mCherry/BFP with ligand (log10 relative fluorescence); HEK293T; ligand: cyclic di-GMP (c-di-GMP-II aptamer); ligand concentration (+) FACS-Seq: 1 mM; higher = higher reporter protein expression; conditions: ligand present: yes
Summary of the method: as §1

cyclic di-GMP [4] = variants of: B1; assay: normalized RNA/DNA level with ligand (relative to sTRSVctl = 100) (log10 (% of sTRSVctl)); HEK293T; ligand: cyclic di-GMP (c-di-GMP-II aptamer); ligand concentration (+) RNA-Seq: 1 mM; higher = less ribozyme self-cleavage, higher mRNA level; conditions: reporter: mCherry (pCS4076), ligand present: yes
Summary of the method: as §2

| Variant | FACS-Seq fitted mean (log10) (cyclic di-GMP [1]) | normalized RNA/DNA level without ligand (log10) (cyclic di-GMP [2]) | FACS-Seq fitted mean (log10) (cyclic di-GMP [3]) | normalized RNA/DNA level with ligand (log10) (cyclic di-GMP [4]) |
| --- | --- | --- | --- | --- |
| GCUGUCACCGAGAAACUGUGAAGUAUAUCUUAAACCUGGGCACUUAAAAGAUAUAUGGAGUUAGUAGUGCAACCUGCUCGGUCUGAUGAGUCCGUGUUGGGACGAAACAGC | -0.394 ± 0.069 | 1.59 ± 0.068 | -0.183 ± 0.047 | 1.74 ± 0.12 |
| GCUGUCACCGAGAAACUGUGAAGUAUAUCUUAAACCUGGGCACUUAAAAGAUAUAUGGAGUUAGUAGUGCAACCUGCUCGGUCUGAUGAGUCCCUACAAGGACGAAACAGC | -0.602 ± 0.069 | 1.48 ± 0.11 | -0.356 ± 0.025 | 1.68 ± 0.067 |
| GCUGUCACCGAGAAACUGUGAAGUAUAUCUUAAACCUGGGCACUUAAAAGAUAUAUGGAGUUAGUAGUGCAACCUGCUCGGUCUGAUGAGUCCGAUAAAGGACGAAACAGC | -0.481 ± 0.013 | 1.47 ± 0.065 | -0.1618 ± 0.00059 | 1.63 ± 0.1 |
| GCUGUCACCGAGAAACUGUGAAGUAUAUCUUAAACCUGGGCACUUAAAAGAUAUAUGGAGUUAGUAGUGCAACCUGCUCGGUCUGAUGAGUCCCCCAUUGGACGAAACAGC | -0.0438 ± 0.1 | 1.637 ± 0.0022 | 0.204 ± 0.023 | 1.79 ± 0.13 |
| GCUGUCACCGAGAAACUGUGAAGUAUAUCUUAAACCUGGGCACUUAAAAGAUAUAUGGAGUUAGUAGUGCAACCUGCUCGGUCUGAUGAGUCCACUGGUGGACGAAACAGC | -0.466 ± 0.02 | 1.52 ± 0.024 | -0.166 ± 0.029 | 1.76 ± 0.079 |
| GCUGUCACCGAGAAACUGUGAAGUAUAUCUUAAACCUGGGCACUUAAAAGAUAUAUGGAGUUAGUAGUGCAACCUGCUCGGUCUGAUGAGUCCAAGAAAGGACGAAACAGC | -0.319 ± 0.062 | 1.38 ± 0.11 | -0.0342 ± 0.062 | 1.56 ± 0.035 |
| GCUGUCACCGAGAAACUGUGAAGUAUAUCUUAAACCUGGGCACUUAAAAGAUAUAUGGAGUUAGUAGUGCAACCUGCUCGGUCUGAUGAGUCCAUAGUUGGACGAAACAGC | -0.615 ± 0.079 | 1.539 ± 0.0099 | -0.438 ± 0.02 | 1.73 ± 0.089 |
| GCUGUCACCGAGAAACUGUGAAGUAUAUCUUAAACCUGGGCACUUAAAAGAUAUAUGGAGUUAGUAGUGCAACCUGCUCGGUCUGAUGAGUCCAUGGUGGGACGAAACAGC | -0.341 ± 0.087 | 1.56 ± 0.1 | -0.113 ± 0.021 | 1.7 ± 0.094 |
| GCUGUCACCGAGAAACUGUGAAGUAUAUCUUAAACCUGGGCACUUAAAAGAUAUAUGGAGUUAGUAGUGCAACCUGCUCGGUCUGAUGAGUCCCUUAAAGGACGAAACAGC | -0.598 ± 0.053 | 1.37 ± 0.072 | -0.238 ± 0.21 | 1.53 ± 0.16 |
| GCUGUCACCGAGAAACUGUGAAGUAUAUCUUAAACCUGGGCACUUAAAAGAUAUAUGGAGUUAGUAGUGCAACCUGCUCGGUCUGAUGAGUCCCGAGAAGGACGAAACAGC | 0.00961 ± 0.085 | 1.35 ± 0.15 | 0.126 ± 0.031 | 1.55 ± 0.037 |
| GCUGUCACCGAGAAACUGUGAAGUAUAUCUUAAACCUGGGCACUUAAAAGAUAUAUGGAGUUAGUAGUGCAACCUGCUCGGUCUGAUGAGUCCAUCUGCGGACGAAACAGC | -0.0609 ± 0.046 | 1.731 ± 0.0043 | 0.176 ± 0.085 | 1.88 ± 0.14 |
| GCUGUCACCGAGAAACUGUGAAGUAUAUCUUAAACCUGGGCACUUAAAAGAUAUAUGGAGUUAGUAGUGCAACCUGCUCGGUCUGAUGAGUCCCUUAUAGGACGAAACAGC | -0.487 ± 0.096 | 1.44 ± 0.09 | -0.184 ± 0.028 | 1.65 ± 0.088 |
| GCUGUCACCGAGAAACUGUGAAGUAUAUCUUAAACCUGGGCACUUAAAAGAUAUAUGGAGUUAGUAGUGCAACCUGCUCGGUCUGAUGAGUCCAUUUAAGGACGAAACAGC | -0.437 ± 0.065 | 1.58 ± 0.074 | -0.0871 ± 0.058 | 1.75 ± 0.078 |
